The values below come from article PMC12089766.

For assay [1], the target named is human glyceraldehyde-3-phosphate dehydrogenase (GAPDH), recombinant, His-tagged (human) (UniProt P04406).
The target in assay [2] is Arabidopsis cytosolic glyceraldehyde-3-phosphate dehydrogenase (GAPC1), recombinant, His-tagged (Arabidopsis thaliana) (UniProt P25858).
Assay [3] shares this target. As to the kind of experiment: MST; GAPC1 labelled on its His tag (RED-tris-NTA 2nd Generation), 50 nM; cyclo(His-Pro) titrated; 50 mM Tris-HCl pH 8.0 with 1.6 mM NAD+; premium capillaries, Monolith X; binding from the spectral shift A670/A650.
For assay [4] the target is unchanged. As to the kind of experiment: nano-differential scanning fluorimetry (nanoDSF); about 0.8 ug protein per capillary in 50 mM Tris-HCl pH 8.0; ligands at 100 uM (cyclo(Tyr-Asp) also at 500 uM and 1 mM); ramp 2 °C/min, 20 to 90 °C; shift of the melting temperature against mock. For orientation: DSF heats the sample and reads unfolding from a dye or from intrinsic fluorescence.

UniProt P25858, sequence (P25858 whole entry): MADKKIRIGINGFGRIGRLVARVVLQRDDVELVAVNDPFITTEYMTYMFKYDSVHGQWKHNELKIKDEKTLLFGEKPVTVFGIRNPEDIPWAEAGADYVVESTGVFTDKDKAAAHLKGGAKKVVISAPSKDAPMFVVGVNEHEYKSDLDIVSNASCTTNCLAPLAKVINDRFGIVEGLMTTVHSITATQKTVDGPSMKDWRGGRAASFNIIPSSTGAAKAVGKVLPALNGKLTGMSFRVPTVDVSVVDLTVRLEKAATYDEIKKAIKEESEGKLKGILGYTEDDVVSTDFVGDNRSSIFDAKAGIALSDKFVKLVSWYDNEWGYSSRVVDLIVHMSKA
UniProt P04406, sequence (P04406 whole entry): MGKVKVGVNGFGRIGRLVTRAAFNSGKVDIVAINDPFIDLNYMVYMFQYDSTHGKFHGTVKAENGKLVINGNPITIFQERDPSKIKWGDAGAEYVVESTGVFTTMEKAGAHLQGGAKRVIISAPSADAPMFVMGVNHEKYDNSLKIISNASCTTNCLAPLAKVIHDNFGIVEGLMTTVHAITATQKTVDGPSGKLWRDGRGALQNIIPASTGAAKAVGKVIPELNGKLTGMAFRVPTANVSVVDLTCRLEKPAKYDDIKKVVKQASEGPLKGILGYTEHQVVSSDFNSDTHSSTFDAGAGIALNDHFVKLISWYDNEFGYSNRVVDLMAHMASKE

As usually defined, the Kd is a measure of binding affinity in units of concentration. For “cyclo(His-Pro), cyclo(L-histidyl-L-proline) (peptide)”, in assay [1], the IC50 of inhibition of GAPDH enzymatic activity is 70 µM. The IC50 of inhibition of GAPC1 enzymatic activity (oxidation of glyceraldehyde-3-phosphate, reduction of NAD+ to NADH) in assay [2] was found to be 200 µM. Also, in assay [3], the Kd was 40 µM. For the same substance, the shift of the melting temperature at 100 μM ligand in assay [4] was greater than 4 °C.

For “cyclo(Tyr-Asp), cyclo(L-tyrosyl-L-aspartic acid) (peptide)”, in assay [2], the IC50 of inhibition of enzymatic activity worked out at 1500 µM.
